Assay results as given in publication PMC8561747 (Cell host & microbe, 2021).

Molecular target: the molecule itself
Assay: SEC

B1: FMNL1_(1–385) (domain or fragment, human, UniProt O95466 1-385, looked up)
chain: MGNAAGSAEQPAGPAAPPPKQPAPPKQPMPAAGELEERFNRALNCMNLPPDKVQLLSQYDNEKKWELICDQERFQVKNPPAAYIQKLKSYVDTGGVSRKVAADWMSNLGFKRRVQESTQVLRELETSLRTNHIGWVQEFLNEENRGLDVLLEYLAFAQCSVTYDMESTDNGASNSEKNKPLEQSVEDLSKGPPSSVPKSRHLTIKLTPAHSRKALRNSRIVSQKDDVHVCIMCLRAIMNYQSGFSLVMNHPACVNEIALSLNNKNPRTKALVLELLAAVCLVRGGHDIILAAFDNFKEVCGEQHRFEKLMEYFRNEDSNIDFMVACMQFINIVVHSVENMNFRVFLQYEFTHLGLDLYLERLRLTESDKLQVQIQAYLDNIFDVG
binding result: binds
